Reference: article PMC7652922

Test: L-[14C]arginine to L-[14C]citrulline conversion, transfected HEK293, low glucose
Details: glycan lost; control: WT-eNOS

B1: endothelial nitric oxide synthase (eNOS): T866A (protein)
parent chain: MGNLKSVAQEPGPPCGLGLGLGLGLCGKQGPATPAPEPSRAPASLLPPAPEHSPPSSPLTQPPEGPKFPRVKNWEVGSITYDTLSAQAQQDGPCTPRRCLGSLVFPRKLQGRPSPGPPAPEQLLSQARDFINQYYSSIKRSGSQAHEQRLQEVEAEVAATGTYQLRESELVFGAKQAWRNAPRCVGRIQWGKLQVFDARDCRSAQEMFTYICNHIKYATNRGNLRSAITVFPQRCPGRGDFRIWNSQLVRYAGYRQQDGSVRGDPANVEITELCIQHGWTPGNGRFDVLPLLLQAPDDPPELFLLPPELVLEVPLEHPTLEWFAALGLRWYALPAVSNMLLEIGGLEFPAAPFSGWYMSTEIGTRNLCDPHRYNILEDVAVCMDLDTRTTSSLWKDKAAVEINVAVLHSYQLAKVTIVDHHAATASFMKHLENEQKARGGCPADWAWIVPPISGSLTPVFHQEMVNYFLSPAFRYQPDPWKGSAAKGTGITRKKTFKEVANAVKISASLMGTVMAKRVKATILYGSETGRAQSYAQQLGRLFRKAFDPRVLCMDEYDVVSLEHETLVLVVTSTFGNGDPPENGESFAAALMEMSGPYNSSPRPEQHKSYKIRFNSISCSDPLVSSWRRKRKESSNTDSAGALGTLRFCVFGLGSRAYPHFCAFARAVDTRLEELGGERLLQLGQGDELCGQEEAFRGWAQAAFQAACETFCVGEDAKAAARDIFSPKRSWKRQRYRLSAQAEGLQLLPGLIHVHRRKMFQATIRSVENLQSSKSTRATILVRLDTGGQEGLQYQPGDHIGVCPPNRPGLVEALLSRVEDPPAPTEPVAVEQLEKGSPGGPPPGWVRDPRLPPCTLRQALTFFLDITSPPSPQLLRLLSTLAEEPREQQELEALSQDPRRYEEWKWFRCPTLLEVLEQFPSVALPAPLLLTQLPLLQPRYYSVSSAPSTHPGEIHLTVAVLAYRTQDGLGPLHYGVCSTWLSQLKPGDPVPCFIRGAPSFRLPPDPSLPCILVGPGTGIAPFRGFWQERLHDIESKGLQPTPMTLVFGCRCSQLDHLYRDEVQNAQQRGVFGRVLTAFSREPDNPKTYVQDILRTELAAEVHRVLCLERGHMFVCGDVTMATNVLQTVQRILATEGDMELDEAGDVIGVLRDQQRYHEDIFGLTLRTQEVTSRIRTQSFSLQERQLRGAVPWAFDPPGSDTNSP
With B1 as the protein, how does the “enzymatic_activity, fold_change” value read?
The value was “decreases, compared with T866A-eNOS, the activity of WT-eNOS was increased 8 to 10 folds”.
